The record followed here is patent publication EP0574621A1.

A word on the IC50: it is the concentration needed to halve the response being measured.

Experiment [1] addresses von Willebrand factor (UniProt P04275). The experiment can be described thus: cell-based or functional assay.
Experiment [2] has the same target.
For experiment [3] the target is unchanged. The experiment in a line: ratio of IC50 values from the competitive radiolabelled botrocetin binding assay.
Experiment [4] shares this target. The experiment can be described thus: competitive inhibition of 125I-two-chain botrocetin binding to vWF in solution by unlabeled two-chain botrocetin; vWF captured on 2-2-9 IgG coated wells.

Like-named read-outs stand apart in the source and are kept apart here.

In the case of one-chain botrocetin, in experiment [1], the Half maximal binding capacity (BM50) was 5.5 µg/mL, the concentration giving maximal vWF binding to glycoprotein Ib is 17 µg/mL and the minimum concentration necessary to induce vWF binding to glycoprotein Ib worked out at 1 µg/mL. In experiment [2], this substance had an IC50 of 55 µg/mL.
In experiment [1], two-chain botrocetin displayed a Half maximal binding capacity (BM50) of 0.16 µg/mL and a fold greater activity (BM50) than one-chain botrocetin of 34 fold. For the same substance, the fold higher affinity than one-chain botrocetin in experiment [3] stood at 32 fold. Further, the 50% inhibitory concentration (IC50) in experiment [4] came to 1.7 µg/mL.
